Experiment [1] addresses D5 IgG.
Experiment [2] addresses D5 IgG. The source holds these as a separate data set.
For experiment [3], the target named is gp120 of the HIV-1 HXB2 envelope (HIV-1 strain HXB2) (UniProt P04578). Description: cell-based or functional assay.
The next experiment deals with IZN17-L565M (HIV) (UniProt P04578). Kind of experiment: SPR (Biacore).
For the next experiment, the target named is IZN17-Q567R (HIV) (UniProt P04578). Description: SPR (Biacore).
A further experiment has as its target IZN17-G572D (HIV) (UniProt P04578). Description: SPR (Biacore). A general note: In SPR one partner is held on a chip, and binding of the other changes the refractive index at the surface.
A further experiment addresses IQN17-2Pro. Kind of experiment: SPR (Biacore).
The target in another experiment is IZN17 (HIV) (UniProt P04578). Description: SPR (Biacore).

Like-named read-outs stand apart in the source and are kept apart here.

Sequence of D5 IgG (antibody) (VH): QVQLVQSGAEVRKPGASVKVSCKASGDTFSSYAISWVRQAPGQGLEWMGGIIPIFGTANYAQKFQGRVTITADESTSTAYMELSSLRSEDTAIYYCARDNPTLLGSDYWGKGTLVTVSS
Sequence of D5 IgG (antibody) (VL): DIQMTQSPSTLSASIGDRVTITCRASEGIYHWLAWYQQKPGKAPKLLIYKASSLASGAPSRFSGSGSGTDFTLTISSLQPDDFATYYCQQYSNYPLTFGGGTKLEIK
Sequence of D5 IgG (VH, as listed by the source, chain 1 of 2): as the sequence (VH) above
Sequence of D5 IgG (VL, as listed by the source, chain 2 of 2): as the sequence (VL) above

In turn, “IZN17 V570A (from UniProt P04578 565-581) (peptide)” returned an IC50 (read off the curve) with D5 IgG [1] of 7 nM.

Consider “IZN17-L565M (from UniProt P04578 565-581) (peptide)”, for which the IC50 (read off the curve) with D5 IgG [2] was 10 nM.

As for “IZN17 (from UniProt P04578 565-581) (peptide)”, the figures for the IC50 (read off the curve) in the experiment with D5 IgG [2] and with D5 IgG [1] were 7 nM and 2 nM, respectively.

X5 scFv gave an IC50, single cycle infectivity assay against HIV-HXB2 in experiment [3] of 30 nM.

Turning to “IZN17-Q567R (from UniProt P04578 565-581) (peptide)”, the IC50 (read off the curve) in the experiment with D5 IgG [2] worked out at 10 nM.

For orientation: Kd means a measure of binding affinity in units of concentration. A high value points to a looser complex. As a reminder, the koff is a measure of how fast the partners let go of each other. The low end stands for a long-lived complex, the high end for a short-lived complex. What is called kon is the second-order rate constant of association. Higher therefore signals fast association. Take D5 IgG (antibody): the Kd came to 0.3 nM with IZN17-L565M (HIV); 1.5 nM in the experiment with IZN17-Q567R (HIV); 550 nM with IZN17-G572D (HIV); 240 nM with IQN17-2Pro; 0.1 nM with IZN17 (HIV). The koff amounted to 0.00089 s⁻¹ with IZN17-L565M (HIV); 0.0012 s⁻¹ with IZN17-Q567R (HIV); 0.003 s⁻¹ with IZN17-G572D (HIV); 0.0022 s⁻¹ with IQN17-2Pro; 0.00059 s⁻¹ with IZN17 (HIV). Also, the kon with IZN17-L565M (HIV) was 3e+06 M⁻¹ s⁻¹; in the experiment with IZN17-Q567R (HIV) it was 800000 M⁻¹ s⁻¹; in the experiment with IZN17-G572D (HIV) it was 5500 M⁻¹ s⁻¹; with IQN17-2Pro, 9000 M⁻¹ s⁻¹; with IZN17 (HIV), 6.1e+06 M⁻¹ s⁻¹.

Source of the values: patent publication US20070248613A1.
